Data set [1] concerns the target T7 RNA polymerase (bacteriophage T7, UniProt P00573 1-883). To be noted: label: radioactive.
For data set [2], the target named is SARS-CoV-2 nucleoprotein (SC_NP) (SARS-CoV-2, UniProt P0DTC9 1-419). Description: EMSA. To be noted: protein: recombinant; chain copies: 2; label: radioactive.
The target of data set [3] is JEV NS5 (Japanese encephalitis virus, UniProt P27395 2528-3432). Description: EMSA. The conditions noted are these: protein: recombinant; label: radioactive. (In general: Mobility shift assays separate free from complexed probe on a gel.)
In data set [4] the target is YFV NS5 (Yellow fever virus, UniProt P03314 2507-3411). Description: EMSA. The conditions noted are these: protein: recombinant; label: radioactive.
The target of data set [5] is HIV reverse transcriptase (HIV-rt) (HIV, UniProt P04585;P04585 588-1147;588-1027). The conditions noted are these: protein: recombinant; copies: 1;1; label: radioactive.

Regarding GAUACUAAGGGAAUAAAUUGAGAGAGAUAAAUUUAU (ssRNA, C5 = 5-(ethoxysquaramate-linked) cytidine (CESQ)) [36_vRNA_1gCESQ], the binding result is on record as “no binding” in data set [1]; “binds” in data set [2]; “binds” in data set [3]; “binds” in data set [4]; “binds” in data set [5].

Values taken from article PMC11696893, “Enzymatic synthesis of reactive RNA probes containing squaramate-linked cytidine or adenosine for bioconjugations and cross-linking with lysine-containing peptides and proteins”.
